Changes are numbered by the printed parent chain.
B1: 563E10E12_hzH3L0_hIgG1 (antibody)
heavy: not shown
light: DIVMTQSPLSLPVTPGEPASISCRSSKSLLHSNGITYLFWYLQKPGQSPQLLIYQMSNLASGVPDRFSGSGSGTDFTLKISRVEAEDVGVYYCAQSLELPLTFGGGTKVEIKRTVAAPSVFIFPPSDEQLKSGTASVVCLLNNFYPREAKVQWKVDNALQSGNSQESVTEQDSKDSTYSLSSTLTLSKADYEKHKVYACEVTHQGLSSPVTKSFNRGEC
notes: Humanized, hIgG1/K
B2: 563E10E12_hzH0L1_hIgG1 (antibody)
heavy: not shown
light: B1 light with I2V
B3: 563E10E12_hzH2L1_hIgG1 (antibody)
heavy: not shown
light: B1 light with I2V
notes: Humanized, hIgG1/K
B4: 563E10E12_hzH3L1_hIgG1 (antibody)
heavy: not shown
light: B1 light with I2V
notes: Humanized, hIgG1/K
B5: 563E10E12_hzH4L0_hIgG1 (antibody)
heavy: not shown
light: B1 light
notes: Humanized, hIgG1/K
B6: 563E10E12_hzH2L0_hIgG1 (antibody)
heavy: not shown
light: B1 light
notes: Humanized, hIgG1/K
B7: 563E10E12_hzH5L1_hIgG1 (antibody)
heavy: not shown
light: B1 light with I2V
notes: Humanized, hIgG1/K
B8: 563E10E12_hzH4L1_hIgG1 (antibody)
heavy: not shown
light: B1 light with I2V
notes: Humanized, hIgG1/K
B9: 563E10E12_hzH5L0_hIgG1 (antibody)
heavy: not shown
light: B1 light
notes: Humanized, hIgG1/K
B10: 563E10E12_hzH0L0_hIgG1 (antibody)
heavy: not shown
light: B1 light
notes: Humanized, hIgG1/K
B11: 563E10E12_hzH6L0_hIgG1 (antibody)
heavy: not shown
light: B1 light
notes: Humanized, hIgG1/K
B12: 563E10E12_hzH6L1_hIgG1 (antibody)
heavy: not shown
light: B1 light with I2V
notes: Humanized, hIgG1/K
B13: 27B9-1G3_hzH1L2_hIgG1 (antibody, V domains shown)
VH: QVQLVQSGAEVKKPGSSVKVSCKASGGTFSGYNMNWVRQAPGQGLEWMGNIDPYYGGTNYNQKFKGRVTITADKSTSTAYMELSSLRSEDTAVYYCARETWFITTGVIKKGFYFDYWGQGTTVTVSS
VL: EIVLTQSPATLSLSPGERATLACSASSIISSNYLHWYQQKPGQAPRLLIYRTSSLASGIPARFSGSGSGTDYTLTISSLEPEDFAVYYCQQGSSIPRTFGGGTKVEIKR
notes: Humanized, hIgG1/K; hzVH01 + hzVL02
B14: 27B9-1G3_hzH4L3_hIgG1 (antibody, V domains shown)
VH: B13 VH with G27Y, T28S, S30T, R67K, V68A
VL: B13 VL with A44S, I59V, D71S
notes: Humanized, hIgG1/K; hzVH04 + hzVL03
B15: 27B9-1G3_hzH3L3_hIgG1 (antibody, V domains shown)
VH: B13 VH with R67K, V68A
VL: B13 VL with A44S, I59V, D71S
notes: Humanized, hIgG1/K; hzVH03 + hzVL03
B16: 27B9-1G3_hzH1L1_hIgG1 (antibody, V domains shown)
VH: B13 VH
VL: B13 VL with A22S, Y72F
notes: Humanized, hIgG1/K; hzVH01 + hzVL01
B17: 27B9-1G3_hzH1L3_hIgG1 (antibody, V domains shown)
VH: B13 VH
VL: B13 VL with A44S, I59V, D71S
notes: Humanized, hIgG1/K; hzVH01 + hzVL03
B18: 27B9-1G3_hzH4L2_hIgG1 (antibody, V domains shown)
VH: B13 VH with G27Y, T28S, S30T, R67K, V68A
VL: B13 VL
notes: Humanized, hIgG1/K; hzVH04 + hzVL02
B19: 27B9-1G3_hzH4L1_hIgG1 (antibody, V domains shown)
VH: B13 VH with G27Y, T28S, S30T, R67K, V68A
VL: B13 VL with A22S, Y72F
notes: Humanized, hIgG1/K; hzVH04 + hzVL01
B20: 27B9-1G3_hzH2L1_hIgG1 (antibody, V domains shown)
VH: B13 VH with G27Y, T28S, S30T
VL: B13 VL with A22S, Y72F
notes: Humanized, hIgG1/K; hzVH02 + hzVL01
B21: 27B9-1G3_hzH2L3_hIgG1 (antibody, V domains shown)
VH: B13 VH with G27Y, T28S, S30T
VL: B13 VL with A44S, I59V, D71S
notes: Humanized, hIgG1/K; hzVH02 + hzVL03
B22: 27B9-1G3_hzH3L1_hIgG1 (antibody, V domains shown)
VH: B13 VH with R67K, V68A
VL: B13 VL with A22S, Y72F
notes: Humanized, hIgG1/K; hzVH03 + hzVL01
B23: 27B9-1G3_hzH3L2_hIgG1 (antibody, V domains shown)
VH: B13 VH with R67K, V68A
VL: B13 VL
notes: Humanized, hIgG1/K; hzVH03 + hzVL02
B24: 27B9-1G3_hzH2L2_hIgG1 (antibody, V domains shown)
VH: B13 VH with G27Y, T28S, S30T
VL: B13 VL
notes: Humanized, hIgG1/K; hzVH02 + hzVL02
B25: 563E10E12_hzH1L1_DE (antibody, human IgG1, kappa)
heavy: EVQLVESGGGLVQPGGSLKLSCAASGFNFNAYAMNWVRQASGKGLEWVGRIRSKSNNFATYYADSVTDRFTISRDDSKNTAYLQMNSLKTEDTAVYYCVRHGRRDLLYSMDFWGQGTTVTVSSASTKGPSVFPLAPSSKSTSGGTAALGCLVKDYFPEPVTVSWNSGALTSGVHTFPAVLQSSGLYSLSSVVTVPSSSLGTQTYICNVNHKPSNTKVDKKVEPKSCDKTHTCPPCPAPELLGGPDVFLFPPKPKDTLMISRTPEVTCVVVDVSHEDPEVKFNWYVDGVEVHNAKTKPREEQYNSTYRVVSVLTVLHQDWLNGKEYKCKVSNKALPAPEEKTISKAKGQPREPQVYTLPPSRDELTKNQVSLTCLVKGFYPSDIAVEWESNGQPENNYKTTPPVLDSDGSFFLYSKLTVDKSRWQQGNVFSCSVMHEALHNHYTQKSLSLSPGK
light: B1 light with I2V
B26: 563E10E12_hzH1L1_VLPLL (antibody, human IgG1, kappa)
heavy: EVQLVESGGGLVQPGGSLKLSCAASGFNFNAYAMNWVRQASGKGLEWVGRIRSKSNNFATYYADSVTDRFTISRDDSKNTAYLQMNSLKTEDTAVYYCVRHGRRDLLYSMDFWGQGTTVTVSSASTKGPSVFPLAPSSKSTSGGTAALGCLVKDYFPEPVTVSWNSGALTSGVHTFPAVLQSSGLYSLSSVVTVPSSSLGTQTYICNVNHKPSNTKVDKKVEPKSCDKTHTCPPCPAPELVGGPSVFLLPPKPKDTLMISRTPEVTCVVVDVSHEDPEVKFNWYVDGVEVHNAKTKPPEEQYNSTLRVVSVLTVLHQDWLNGKEYKCKVSNKALPAPIEKTISKAKGQPREPQVYTLPPSRDELTKNQVSLTCLVKGFYPSDIAVEWESNGQPENNYKTTPLVLDSDGSFFLYSKLTVDKSRWQQGNVFSCSVMHEALHNHYTQKSLSLSPGK
light: B1 light with I2V
B27: 559E1B10_hzH1L1_DE (antibody, human IgG1, kappa)
heavy: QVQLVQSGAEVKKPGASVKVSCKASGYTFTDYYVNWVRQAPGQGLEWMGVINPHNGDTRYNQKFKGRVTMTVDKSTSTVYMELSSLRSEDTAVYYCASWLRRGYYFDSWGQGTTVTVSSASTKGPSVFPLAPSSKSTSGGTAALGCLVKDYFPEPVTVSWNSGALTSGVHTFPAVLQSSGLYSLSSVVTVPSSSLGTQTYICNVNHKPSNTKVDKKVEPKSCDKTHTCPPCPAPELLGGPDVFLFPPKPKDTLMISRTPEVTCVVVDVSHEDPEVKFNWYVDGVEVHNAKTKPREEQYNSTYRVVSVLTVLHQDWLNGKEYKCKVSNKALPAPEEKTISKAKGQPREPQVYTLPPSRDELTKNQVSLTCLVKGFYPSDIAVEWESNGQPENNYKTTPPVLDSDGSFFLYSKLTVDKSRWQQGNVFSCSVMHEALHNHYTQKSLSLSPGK
light: EIVLTQSPATLSLSPGERATLSCRASQSISDYLHWYQQKPGQAPRLLLKYVSQSISGIPARFSGSGSGTDFTLTISSLEPEDFAVYYCQNGHSFPLTFGGGTKVEIKRTVAAPSVFIFPPSDEQLKSGTASVVCLLNNFYPREAKVQWKVDNALQSGNSQESVTEQDSKDSTYSLSSTLTLSKADYEKHKVYACEVTHQGLSSPVTKSFNRGEC
B28: 559E1B10_hzH1L1_VLPLL (antibody, human IgG1, kappa)
heavy: QVQLVQSGAEVKKPGASVKVSCKASGYTFTDYYVNWVRQAPGQGLEWMGVINPHNGDTRYNQKFKGRVTMTVDKSTSTVYMELSSLRSEDTAVYYCASWLRRGYYFDSWGQGTTVTVSSASTKGPSVFPLAPSSKSTSGGTAALGCLVKDYFPEPVTVSWNSGALTSGVHTFPAVLQSSGLYSLSSVVTVPSSSLGTQTYICNVNHKPSNTKVDKKVEPKSCDKTHTCPPCPAPELVGGPSVFLLPPKPKDTLMISRTPEVTCVVVDVSHEDPEVKFNWYVDGVEVHNAKTKPPEEQYNSTLRVVSVLTVLHQDWLNGKEYKCKVSNKALPAPIEKTISKAKGQPREPQVYTLPPSRDELTKNQVSLTCLVKGFYPSDIAVEWESNGQPENNYKTTPLVLDSDGSFFLYSKLTVDKSRWQQGNVFSCSVMHEALHNHYTQKSLSLSPGK
light: B27 light

target: T1, human CCR8 (human, UniProt P51685 1-355); experiment: cell-based or functional assay
T1 sequence (P51685 whole entry): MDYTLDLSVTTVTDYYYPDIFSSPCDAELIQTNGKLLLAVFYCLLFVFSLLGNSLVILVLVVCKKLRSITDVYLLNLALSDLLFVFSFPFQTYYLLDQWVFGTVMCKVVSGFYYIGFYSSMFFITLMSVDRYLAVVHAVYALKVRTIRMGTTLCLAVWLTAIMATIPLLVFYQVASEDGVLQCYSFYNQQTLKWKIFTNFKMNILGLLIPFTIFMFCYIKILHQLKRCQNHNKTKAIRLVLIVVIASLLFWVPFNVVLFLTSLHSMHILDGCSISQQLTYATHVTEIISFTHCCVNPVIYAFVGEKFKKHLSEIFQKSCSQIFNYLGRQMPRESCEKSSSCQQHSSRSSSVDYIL

| EC50 of activation of Jurkat-human FcγRIIIa(158V)-NFAT with 293F-hCCR8 target cells | Binder |
| --- | --- |
| 0.0357 µg/mL | B1 |
| 0.0299 µg/mL | B2 |
| 0.0305 µg/mL | B3 |
| 0.0261 µg/mL | B4 |
| 0.0388 µg/mL | B5 |
| 0.0281 µg/mL | B6 |
| 0.0264 µg/mL | B7 |
| 0.0259 µg/mL | B8 |
| 0.0355 µg/mL | B9 |
| 0.0286 µg/mL | B10 |

target: T1, human CCR8; experiment: flow cytometry on 293F-hCCR8 cells

| EC50 | Binder |
| --- | --- |
| 0.133 µg/mL | B1 |
| 0.118 µg/mL | B2 |
| 0.136 µg/mL | B3 |
| 0.114 µg/mL | B4 |
| 0.102 µg/mL | B5 |
| 0.103 µg/mL | B6 |
| 0.129 µg/mL | B7 |
| 0.0569 µg/mL | B11 |
| 0.116 µg/mL | B8 |
| 0.13 µg/mL | B9 |
| 0.107 µg/mL | B10 |
| 0.0593 µg/mL | B12 |
| 0.237 µg/mL | B13 |
| 0.22 µg/mL | B14 |
| 0.198 µg/mL | B15 |
| 0.188 µg/mL | B16 |
| 0.175 µg/mL | B17 |
| 0.196 µg/mL | B18 |
| 0.178 µg/mL | B19 |
| 0.246 µg/mL | B20 |
| 0.212 µg/mL | B21 |
| 0.175 µg/mL | B22 |
| 0.2 µg/mL | B23 |
| 0.19 µg/mL | B24 |

target: T1, human CCR8; experiment: cell-based or functional assay; remark: another data set of the same source

| IC50 of blockade of CCL1-induced β-arrestin recruitment | Binder |
| --- | --- |
| 1.16 µg/mL | B1 |
| 3.65 µg/mL | B2 |
| 1.52 µg/mL | B3 |
| 1.53 µg/mL | B4 |
| 1.49 µg/mL | B5 |
| 1.46 µg/mL | B6 |
| 1.38 µg/mL | B7 |
| 1.84 µg/mL | B11 |
| 2.1 µg/mL | B8 |
| 1.7 µg/mL | B9 |
| 3.51 µg/mL | B10 |
| 1.65 µg/mL | B12 |

target: T1, human CCR8; experiment: flow cytometry, competition with 10 nM AF647-human CCL1 on 293F-hCCR8 cells

| IC50 | Binder |
| --- | --- |
| 0.0761 µg/mL | B1 |
| 0.0862 µg/mL | B2 |
| 0.064 µg/mL | B3 |
| 0.0732 µg/mL | B4 |
| 0.0544 µg/mL | B5 |
| 0.0689 µg/mL | B6 |
| 0.0878 µg/mL | B7 |
| 0.0543 µg/mL | B11 |
| 0.0458 µg/mL | B8 |
| 0.0851 µg/mL | B9 |
| 0.0958 µg/mL | B10 |
| 0.0579 µg/mL | B12 |
| 0.291 µg/mL | B13 |
| 0.167 µg/mL | B14 |
| 0.189 µg/mL | B15 |
| 0.31 µg/mL | B16 |
| 0.228 µg/mL | B17 |
| 0.162 µg/mL | B18 |
| 0.163 µg/mL | B19 |
| 0.269 µg/mL | B20 |
| 0.192 µg/mL | B21 |
| 0.121 µg/mL | B22 |
| 0.15 µg/mL | B23 |
| 0.299 µg/mL | B24 |

target: T1, human CCR8; experiment: cell-based or functional assay; remark: another data set of the same source

| EC50 of activation of Jurkat-human FcγRIIIa(158V)-NFAT with 293F-hCCR8 target cells | Binder |
| --- | --- |
| 0.0006 µg/mL | B25 |
| 0.0013 µg/mL | B26 |
| 0.0006 µg/mL | B27 |
| 0.0014 µg/mL | B28 |

— patent EP4624492A1 (Shanghai Hongcheng Biopharmaceutical Co., Ltd., dated 2025)
